Test results taken from patent US20200206304A1, “METHODS AND COMPOSITIONS FOR EFFICIENT DELIVERY THROUGH MULTIPLE BIO BARRIERS” (Cedars-Sinai Medical Center, priority 2017, published 2020).
Where two headings read alike, the source gives them in different places.

Columns and labels:
brain parenchyma = system: brain parenchyma
Description: To determine how nanoconjugate-associated fluorescence relates to the anatomy of the vasculature, the distance of each analyzed ROI was manually measured from the nearest blood vessel wall (using line tool in FIJI). For tumor bearing mice, 5 images per tumor tissue and 5 per brain tissue were analyzed for each mouse. Intensity values were then plotted against the location of the blood vessel wall and summarized in scatterplots (e.g., FIG. 14B).
Drug concentrations are listed with regard to total nanoconjugate content systemically injected. […] Referring to FIG. 14B, fluorescence measurements were obtained from 10 μm^2-sized regions of interest (ROI) that were randomly overlaid on regions devoid of vasculature shown as yellow squares on photograph 1 of FIG. 14A. Intensity measurements and positions were then obtained for each ROI and plotted against the location of the nearest blood vessel wall. FIG. 14C is set of charts: chart 1—Cortex; chart 2—Midbrain and chart 3 Hippocampus, illustrating average nanoconjugate fluorescence in the brain parenchyma measured following injections at four different drug concentrations. In this figure, fluorescence is shown as relative fluorescence, which is the measured nanoconjugate fluorescence after subtraction of autofluorescence imaged from PBS injected animals using similar acquisition settings.
FIG. 14B explores this relationship in a plot from all of the measurements (for each condition: 4 mice, 3-4 sections with 20 random measurements each). All fluorescence intensity measurements were conducted with 10 μm^2-sized regions of interest placed outside of tomato-lectin stained blood vessels (ROI as in Photograph 1 of FIG. 14A); the positions of these ROIs were then measured against the location of the nearest blood vessel wall to produce the scatterplot in FIG. 14B.
The resulting data were used as a metric to examine how well the mini nanodrug was able to travel from the vessels into the surrounding parenchyma and encounter brain cells. […] Nanoconjugate diffused fluorescence intensity vs. ‘distance from vasculature’ measurements in brain parenchyma of mice injected with nanoconjugates at a dose of 0.274 μmol/Kg. Fluorescence measurements were obtained from […] regions of interest (ROI) that were randomly overlaid on regions devoid of vasculature (shown by yellow squares in FIG. 22A). Intensity measurements and positions were then obtained for each ROI and plotted against the location of the nearest blood vessel wall.

[1] = system: blood-brain barrier (BBB); conditions: dose 8×
Description: AD-Mouse models: 6-8 month old […] (B6.Cg-Tg (APPswe/PS1ΔE9) 85Dbo/J hemizygous) mice were obtained from Jackson Laboratories. Mouse maintenance and experimental procedures followed the guidelines established by the Cedars Sinai Institutional Animal Care and Use Committee (IACUC Protocol #7416). Three to four mice of each sex were used for each experiment. Nanoconjugates were dissolved freshly in PBS (pH 7.4) prior to each experiment and injected intravenously (i.v.) into the lateral tail vein. […] Mice were anesthetized with isoflurane beforehand and their tails were briefly warmed to facilitate injections. The drug injection volume was kept constant at 150 μL. After each injection, mice were promptly returned to their cages. Brains were collected and preserved in OTC for immunostaining.
The brains were harvested and a 14 μm thick slices which were fixed and stained with DAPI to envision the nuclei
A comparison with normal brain was beneficial for understanding of the development of Alzheimer's disease.

glioblastoma GL261 = conditions: mouse, in vivo
[2] = 0.5, 1, 2 and 4 hours after injection

Substance: PMLA/LLL/AP2/rhodamine [P/LLL/AP2]
- fluorescence intensity decrease (slope), linear regression vs distance from vessel (brain parenchyma; 0.274 μmol/kg, 120 min): −0.272±0.07
- γ-intercept of linear regression, fluorescence vs distance (brain parenchyma; 0.274 μmol/kg, 120 min): 17.49±0.8
- γ-intercept of linear regression, fluorescence vs distance (brain parenchyma; 0.068 mol/kg, 120 min): 6.342±0.34
- cortex Y intercepts of fluorescence vs distance curves (exponential fits) (brain parenchyma; cortex, 0.274 μmol/Kg): 14.7
- fluorescence intensity in AD brain [1]: 10 units
- serum concentration at 120 minutes (0.068 μmol/kg injection): 1.15e+08 µM
- serum drug concentration at 120 minutes post injection (0.068 μmol/kg injection): 115 µM
- serum half-life (i.v. 0.068 μmol/kg, single exponential decay fit): 1.28 h
- increase in tumor selectivity with the increase of the dose (glioblastoma GL261): 2.4 fold
- Visibility of nanoconjugate around blood vessels in ex vivo brain slices [2]: visible around blood vessels for two hours and almost disappeared at 4 hours
